The values below come from patent publication US20140044713A1 (KONINKLIJKE NEDERLANDSE AKADEMIE VAN WETENSCHAPPEN, published 2014).

The labels stand for the following.
T1: Lgr5-exo-Fc (leucine-rich-repeat exodomain of Lgr5, amino acids 1 to 546, human IgG-Fc fusion protein) (human, UniProt O75473 22-546)
T1 construct: range 1-546; also called LGR5-Fc; huLGR5-Fc; not shown: human IgG-Fc
T1 sequence (looked up): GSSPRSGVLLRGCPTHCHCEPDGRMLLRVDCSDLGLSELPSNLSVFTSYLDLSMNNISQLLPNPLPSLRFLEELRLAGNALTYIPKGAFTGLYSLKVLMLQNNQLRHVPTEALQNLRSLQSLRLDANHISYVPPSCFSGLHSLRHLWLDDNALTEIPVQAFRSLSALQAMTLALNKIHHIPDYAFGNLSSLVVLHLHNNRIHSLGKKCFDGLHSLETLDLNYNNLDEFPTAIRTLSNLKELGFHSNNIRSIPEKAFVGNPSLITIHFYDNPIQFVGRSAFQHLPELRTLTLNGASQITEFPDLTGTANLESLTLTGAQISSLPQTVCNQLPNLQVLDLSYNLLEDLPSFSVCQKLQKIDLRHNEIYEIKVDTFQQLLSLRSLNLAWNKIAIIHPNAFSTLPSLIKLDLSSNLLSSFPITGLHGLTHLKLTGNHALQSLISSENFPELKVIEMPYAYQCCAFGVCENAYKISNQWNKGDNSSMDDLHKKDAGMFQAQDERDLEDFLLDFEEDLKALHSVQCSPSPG

B1: FLAG/HA-tagged Lgr5 (receptor, human, UniProt O75473 22-907, looked up)
chain: GSSPRSGVLLRGCPTHCHCEPDGRMLLRVDCSDLGLSELPSNLSVFTSYLDLSMNNISQLLPNPLPSLRFLEELRLAGNALTYIPKGAFTGLYSLKVLMLQNNQLRHVPTEALQNLRSLQSLRLDANHISYVPPSCFSGLHSLRHLWLDDNALTEIPVQAFRSLSALQAMTLALNKIHHIPDYAFGNLSSLVVLHLHNNRIHSLGKKCFDGLHSLETLDLNYNNLDEFPTAIRTLSNLKELGFHSNNIRSIPEKAFVGNPSLITIHFYDNPIQFVGRSAFQHLPELRTLTLNGASQITEFPDLTGTANLESLTLTGAQISSLPQTVCNQLPNLQVLDLSYNLLEDLPSFSVCQKLQKIDLRHNEIYEIKVDTFQQLLSLRSLNLAWNKIAIIHPNAFSTLPSLIKLDLSSNLLSSFPITGLHGLTHLKLTGNHALQSLISSENFPELKVIEMPYAYQCCAFGVCENAYKISNQWNKGDNSSMDDLHKKDAGMFQAQDERDLEDFLLDFEEDLKALHSVQCSPSPGPFKPCEHLLDGWLIRIGVWTIAVLALTCNALVTSTVFRSPLYISPIKLLIGVIAAVNMLTGVSSAVLAGVDAFTFGSFARHGAWWENGVGCHVIGFLSIFASESSVFLLTLAALERGFSVKYSAKFETKAPFSSLKVIILLCALLALTMAAVPLLGGSKYGASPLCLPLPFGEPSTMGYMVALILLNSLCFLMMTIAYTKLYCNLDKGDLENIWDCSMVKHIALLLFTNCILNCPVAFLSFSSLINLTFISPEVIKFILLVVVPLPACLNPLLYILFNPHFKEDLVSLRKQTYVWTRSKHPSLMSINSDDVEKQSCDSTQALVTFTSSSITYDLPPSSVPSPAYPVTESCHLSSVAFVPCL
notes: whole, on cells; also called Lgr5 bait; FH-tagged human Lgr5; not shown: FLAG/HA double tag
B2: double (FLAG-HA)-tagged version of human Rspo-1 (Rspo1-FH) (ligand)
chain: SRGIKGKRQRRISAEGSQACAKGCELCSEVNGCLKCSPKLFILLERNDIRQVGVCLPSCPPGYFDARNPDMNKCIKCKIEHCEACFSHNFCTKCKEGLYLHKGRCYPACPEGSSAANGTMECSSPAQCEMSEWSPWGPCSKKQQLCGFRRGSEERTRRVLHAPVGDHAACSDTKETRRCTVRRVPCPEGQKRRKGGQGRRENANRNLARKESKEAGAGSRRRKGQQQQQQQGTVGPLTSAGPA
notes: Used as HEK293T conditioned medium; also called huRSPO1-FH; not shown: FLAG-HA double tag
B3: Lgr1 (receptor, not shown: small tags and cut ends)
chain: CHHRICHCSNRVFLCQESKVTEIPSDLPRNAIELRFVLTKLRVIQKGAFSGFGDLEKIEISQNDVLEVIEADVFSNLPKLHEIRIEKANNLLYINPEAFQNLPNLQYLLISNTGIKHLPDVHKIHSLQKVLLDIQDNINIHTIERNSFVGLSFESVILWLNKNGIQEIHNCAFNGTQLDELNLSDNNNLEELPNDVFHGASGPVILDISRTRIHSLPSYGLENLKKLRARSTYNLKKLPTLEKLVALMEASLTYPSHCCAFANWRRQISELHPICNKSILRQEVDYMTQARGQRSSLAEDNESSYSRGFDMTYTEFDYDLCNEVVDVTCSPKPDAFNPCEDIMGYNILRVLIWFISILAITGNIIVLVILTTSQYKLTVPRFLMCNLAFADLCIGIYLLLIASVDIHTKSQYHNYAIDWQTGAGCDAAGFFTVFASELSVYTLTAITLERWHTITHAMQLDCKVQLRHAASVMVMGWIFAFAAALFPIFGISSYMKVSICLPMDIDSPLSQLYVMSLLVLNVLAFVVICGCYIHIYLTVRNPNIVSSSSDTRIAKRMAMLIFTDFLCMAPISFFAISASLKVPLITVSKAKILLVLFHPINSCANPFLYAIFTKNFRRDFFILLSKCGCYEMQAQIYRTETSSTVHNTHPRNGHCSSAPRVTSGSTYILVPLSHLAQN
notes: Control lane of the Rspo1-Fc pull-down
B4: tagged Frizzled5 (Frz5) (receptor, UniProt Q13467 27-585, looked up)
chain: ASKAPVCQEITVPMCRGIGYNLTHMPNQFNHDTQDEAGLEVHQFWPLVEIQCSPDLRFFLCSMYTPICLPDYHKPLPPCRSVCERAKAGCSPLMRQYGFAWPERMSCDRLPVLGRDAEVLCMDYNRSEATTAPPRPFPAKPTLPGPPGAPASGGECPAGGPFVCKCREPFVPILKESHPLYNKVRTGQVPNCAVPCYQPSFSADERTFATFWIGLWSVLCFISTSTTVATFLIDMERFRYPERPIIFLSACYLCVSLGFLVRLVVGHASVACSREHNHIHYETTGPALCTIVFLLVYFFGMASSIWWVILSLTWFLAAGMKWGNEAIAGYAQYFHLAAWLIPSVKSITALALSSVDGDPVAGICYVGNQNLNSLRGFVLGPLVLYLLVGTLFLLAGFVSLFRIRSVIKQGGTKTDKLEKLMIRIGIFTLLYTVPASIVVACYLYEQHYRESWEAALTCACPGHDTGQPRAKPEYWVLMLKYFMCLVVGITSGVWIWSGKTVESWRRFTSRCCCRPRRGHKSGGAMAAGDYPEASAALTGRTGPPGPAATYHKQVSLSHV
notes: whole, on cells; also called double-tagged Frizzled5; Frz5 bait; not shown: FLAG/HA tag
B5: Frz6 (endogenous, LS174T cells) (receptor, human, UniProt O60353 19-706, looked up)
chain: HSLFTCEPITVPRCMKMAYNMTFFPNLMGHYDQSIAAVEMEHFLPLANLECSPNIETFLCKAFVPTCIEQIHVVPPCRKLCEKVYSDCKKLIDTFGIRWPEELECDRLQYCDETVPVTFDPHTEFLGPQKKTEQVQRDIGFWCPRHLKTSGGQGYKFLGIDQCAPPCPNMYFKSDELEFAKSFIGTVSIFCLCATLFTFLTFLIDVRRFRYPERPIIYYSVCYSIVSLMYFIGFLLGDSTACNKADEKLELGDTVVLGSQNKACTVLFMLLYFFTMAGTVWWVILTITWFLAAGRKWSCEAIEQKAVWFHAVAWGTPGFLTVMLLAMNKVEGDNISGVCFVGLYDLDASRYFVLLPLCLCVFVGLSLLLAGIISLNHVRQVIQHDGRNQEKLKKFMIRIGVFSGLYLVPLVTLLGCYVYEQVNRITWEITWVSDHCRQYHIPCPYQAKAKARPELALFMIKYLMTLIVGISAVFWVGSKKTCTEWAGFFKRNRKRDPISESRRVLQESCEFFLKHNSKVKHKKKHYKPSSHKLKVISKSMGTSTGATANHGTSAVAITSHDYLGQETLTEIQTSPETSMREVKADGASTPRLREQDCGEPASPAASISRLSGEQVDGKGQAGSVSESARSEGRISPKSDITDTGLAQSNNLQVPSSSEPSSLKGSTSLLVHPVSGVRKEQGGGCHSDT
notes: whole, on cells

The target of assay [1] is T2, Frz7 (endogenous, LS174T cells) (human, UniProt O75084 33-574).
T2 construct: whole, on cells
Briefly: TAP (anti-FLAG, anti-HA) + mass spectrometry, bait stably expressed in LS174T cells, Exp 3-6. The method, then:
(§1) Left panel (Exps 1-7): HEK293T cells were transiently transfected, and LS174T cells were stably, transfected with the indicated tagged proteins. Right panel (Exps 8-9): HEK293T cells were incubated with the indicated tagged soluble proteins at 1 μg/ml. Sequential immunoprecipitation was performed by anti-FLAG and anti-HA antibodies and the associated complexes were analysed by mass spectrometry. Number of assigned spectra, number of unique peptides and the MASCOT Protein Score are given for selected identified proteins.

A further assay addresses T3, LRP5 (endogenous) (human, UniProt O75197 32-1615).
T3 construct: whole, on cells
Briefly: TAP (anti-FLAG, anti-HA) + mass spectrometry, 293T cells incubated with the soluble tagged bait, Exp 9. On the procedure: as §1

The target in another assay is T4, LRP6 (endogenous) (human, UniProt O75581 20-1613).
T4 construct: whole, on cells
T4 sequence (O75581 20-1613): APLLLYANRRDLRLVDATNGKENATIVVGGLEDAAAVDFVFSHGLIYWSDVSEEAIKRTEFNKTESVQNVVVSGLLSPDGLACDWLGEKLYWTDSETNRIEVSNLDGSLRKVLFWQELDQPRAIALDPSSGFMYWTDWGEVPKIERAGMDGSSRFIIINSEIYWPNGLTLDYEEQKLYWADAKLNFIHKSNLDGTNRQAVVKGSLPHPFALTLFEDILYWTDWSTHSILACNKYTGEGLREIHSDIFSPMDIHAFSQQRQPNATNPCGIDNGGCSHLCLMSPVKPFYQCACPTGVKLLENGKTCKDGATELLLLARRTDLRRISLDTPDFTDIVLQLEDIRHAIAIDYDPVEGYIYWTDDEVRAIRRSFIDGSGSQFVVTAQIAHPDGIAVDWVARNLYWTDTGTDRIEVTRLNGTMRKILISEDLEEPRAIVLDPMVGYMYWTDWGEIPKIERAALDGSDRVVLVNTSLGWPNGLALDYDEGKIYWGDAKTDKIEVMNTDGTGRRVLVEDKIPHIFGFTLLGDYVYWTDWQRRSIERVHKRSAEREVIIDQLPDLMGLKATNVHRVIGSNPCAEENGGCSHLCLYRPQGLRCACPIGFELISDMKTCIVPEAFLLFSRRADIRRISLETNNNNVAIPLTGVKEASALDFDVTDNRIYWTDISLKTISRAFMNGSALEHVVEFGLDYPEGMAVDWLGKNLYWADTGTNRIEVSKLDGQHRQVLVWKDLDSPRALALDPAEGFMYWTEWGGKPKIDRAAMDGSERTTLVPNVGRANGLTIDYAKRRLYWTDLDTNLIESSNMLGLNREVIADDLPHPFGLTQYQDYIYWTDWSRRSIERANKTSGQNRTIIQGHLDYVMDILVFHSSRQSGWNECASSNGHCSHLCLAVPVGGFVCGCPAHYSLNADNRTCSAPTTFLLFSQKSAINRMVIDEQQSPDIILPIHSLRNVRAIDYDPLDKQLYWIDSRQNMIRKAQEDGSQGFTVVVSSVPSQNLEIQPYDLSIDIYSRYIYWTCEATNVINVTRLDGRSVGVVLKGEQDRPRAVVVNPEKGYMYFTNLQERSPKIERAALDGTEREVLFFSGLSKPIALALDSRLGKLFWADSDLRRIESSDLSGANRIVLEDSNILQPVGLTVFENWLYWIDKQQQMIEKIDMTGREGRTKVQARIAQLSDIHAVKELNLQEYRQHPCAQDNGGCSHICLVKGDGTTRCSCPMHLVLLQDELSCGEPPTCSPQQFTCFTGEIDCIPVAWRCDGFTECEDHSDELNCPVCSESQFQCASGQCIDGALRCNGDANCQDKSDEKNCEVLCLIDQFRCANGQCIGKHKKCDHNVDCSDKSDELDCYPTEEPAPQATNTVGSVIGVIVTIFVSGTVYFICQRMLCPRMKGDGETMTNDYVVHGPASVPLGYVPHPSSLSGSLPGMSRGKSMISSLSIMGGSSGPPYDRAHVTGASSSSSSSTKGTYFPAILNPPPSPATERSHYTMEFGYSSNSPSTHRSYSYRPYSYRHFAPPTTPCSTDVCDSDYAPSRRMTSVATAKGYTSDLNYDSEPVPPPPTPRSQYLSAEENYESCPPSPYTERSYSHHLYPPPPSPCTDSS
The description is as above. On the procedure: as §1

The target of assay [2] is T1, Lgr5-exo-Fc (leucine-rich-repeat …). Nature of the assay: SPR array imaging (IBIS MX96), Rspo1-FH captured on anti-FLAG, LGR5-Fc at 45, 23 and 11 nM, 1:1 discrete interaction model. An excerpt:
This allowed us to perform a binding experiment using Surface Plasmon Resonance array imaging.

The target is the same in assay [3]. Nature of the assay: SPR array imaging (IBIS MX96), RSpo-1-FH captured on anti-Flag spots of decreasing density, 1:1 model, extrapolated to Rmax=0. From the text:
FIG. 15: Rspondin1-Lgr5 interaction KD determination by Surface Plasmon Resonance array imaging. […] In IBIS-SPRint software (version 2) an exponential fitting routine y=a*ebx was used for extrapolating the values of KD and kd at Rmax=0 (arrows).
Method: IBIS-SPRinT 2.0. An array of anti-Flag spots with decreasing densities was printed on a preactivated sensor surface (IBIS Technologies, Enschede, the Netherlands) using a continuous flow microspotter (CFM) (Wasatch Microfluidics, Utah, US).

Another assay concerns the target T5, Rspo1-Fc fusion protein (Homo sapiens (Human), UniProt Q2MKA7 21-263, limits assumed).
T5 construct: also called Rspondin1 IgFc fusion protein; not shown: Fc (IgFc) part
Briefly: HEK293T cells transfected with the tagged Lgr, incubated with Rspo1-Fc, protein G immunoprecipitation, anti-FLAG Western blot. An excerpt: FIG. 7A: Rspondin1 binds to Lgr4, Lgr5 and Lgr6. […] Bottom: Input of tagged proteins.

Assay [4] concerns the target B5. Briefly: TAP (anti-FLAG, anti-HA) + mass spectrometry, bait stably expressed in LS174T cells, Exp 7. On the procedure:
as §1

Assay [5] has as its target T2, Frz7 (endogenous, LS174T cells). The description is as above. On the procedure: as §1
Another assay has as its target T6, FLAG/HA-tagged Lgr4 (human, UniProt Q9BXB1 25-951).
T6 construct: whole, on cells; also called Lgr4 bait; FH-tagged human Lgr4; not shown: FLAG/HA double tag
Nature of the assay: TAP (anti-FLAG, anti-HA) + mass spectrometry, bait stably expressed in LS174T cells, Exp 2. On the procedure: as §1

T3 sequence (O75197 32-1615): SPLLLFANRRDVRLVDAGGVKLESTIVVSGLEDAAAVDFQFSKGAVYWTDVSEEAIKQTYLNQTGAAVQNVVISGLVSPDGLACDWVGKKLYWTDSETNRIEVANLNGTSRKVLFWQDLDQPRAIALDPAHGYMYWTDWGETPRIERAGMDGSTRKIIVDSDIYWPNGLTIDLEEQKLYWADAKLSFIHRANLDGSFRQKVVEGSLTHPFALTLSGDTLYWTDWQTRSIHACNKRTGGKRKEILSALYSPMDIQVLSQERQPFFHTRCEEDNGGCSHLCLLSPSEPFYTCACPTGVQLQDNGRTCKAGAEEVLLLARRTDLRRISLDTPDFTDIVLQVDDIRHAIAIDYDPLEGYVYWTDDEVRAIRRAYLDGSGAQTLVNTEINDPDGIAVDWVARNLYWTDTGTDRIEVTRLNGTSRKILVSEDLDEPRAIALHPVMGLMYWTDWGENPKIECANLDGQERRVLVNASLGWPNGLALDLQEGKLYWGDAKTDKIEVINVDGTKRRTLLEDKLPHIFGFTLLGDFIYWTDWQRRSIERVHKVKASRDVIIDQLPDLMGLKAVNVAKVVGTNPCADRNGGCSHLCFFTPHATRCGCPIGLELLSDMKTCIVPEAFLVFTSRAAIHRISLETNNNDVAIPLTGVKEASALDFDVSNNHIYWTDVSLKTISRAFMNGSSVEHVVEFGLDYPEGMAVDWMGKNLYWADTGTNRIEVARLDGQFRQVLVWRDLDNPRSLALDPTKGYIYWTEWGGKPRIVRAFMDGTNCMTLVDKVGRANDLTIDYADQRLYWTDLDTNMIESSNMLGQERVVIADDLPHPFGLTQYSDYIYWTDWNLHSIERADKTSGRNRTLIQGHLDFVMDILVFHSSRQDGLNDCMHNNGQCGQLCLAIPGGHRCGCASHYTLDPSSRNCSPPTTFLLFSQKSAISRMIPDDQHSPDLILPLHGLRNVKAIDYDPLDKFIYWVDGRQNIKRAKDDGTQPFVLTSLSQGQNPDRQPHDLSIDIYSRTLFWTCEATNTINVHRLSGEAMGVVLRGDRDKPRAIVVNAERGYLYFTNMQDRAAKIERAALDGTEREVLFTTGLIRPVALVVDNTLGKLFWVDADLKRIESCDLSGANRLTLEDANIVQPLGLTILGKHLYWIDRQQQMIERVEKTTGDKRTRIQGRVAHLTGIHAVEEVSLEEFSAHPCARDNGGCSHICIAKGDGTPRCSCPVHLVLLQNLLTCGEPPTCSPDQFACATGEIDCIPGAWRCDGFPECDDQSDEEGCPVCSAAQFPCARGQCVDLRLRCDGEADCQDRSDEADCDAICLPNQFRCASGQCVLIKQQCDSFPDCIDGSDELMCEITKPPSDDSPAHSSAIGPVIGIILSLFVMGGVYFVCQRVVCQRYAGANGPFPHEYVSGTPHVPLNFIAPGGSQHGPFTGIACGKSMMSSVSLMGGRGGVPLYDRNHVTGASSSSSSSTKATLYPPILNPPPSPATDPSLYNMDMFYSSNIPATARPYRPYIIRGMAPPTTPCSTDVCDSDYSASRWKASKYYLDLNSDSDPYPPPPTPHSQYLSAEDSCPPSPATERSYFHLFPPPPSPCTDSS

Regarding B1, the binding result in assay [1] is given as “no binding”.
On to B2, for which the binding result in the assay with LRP5 (endogenous) and in the assay with LRP6 (endogenous) was “no binding (tested: 1 µg/ml)” in each case. Besides, the Kd in assay [2] was about 3 nM; in [3], 3.07 nM. Also, in assay [3], the koff is 0.000155 s⁻¹. Moreover, in assay [3], the kon is 50400 M⁻¹ s⁻¹.
As to B3, the binding result with Rspo1-Fc fusion protein was “no binding (tested: ~1 µg/ml)”.
Regarding B4, the binding result in assay [4] and in assay [5] was “no binding” in each case.
With B5, in the assay with FLAG/HA-tagged Lgr4, the binding result was “no binding”.
